{
  "source": "patent US20210155689A1",
  "about": "(SHANGHAI PHARMAEXPLORER, published 2021)",
  "key": {"[1]": {"molecular_target": "T1, human LAG-3 on cells (HEK293-hLAG-3 stable cell line) (human, UniProt P18627 23-525)", "T1 sequence": "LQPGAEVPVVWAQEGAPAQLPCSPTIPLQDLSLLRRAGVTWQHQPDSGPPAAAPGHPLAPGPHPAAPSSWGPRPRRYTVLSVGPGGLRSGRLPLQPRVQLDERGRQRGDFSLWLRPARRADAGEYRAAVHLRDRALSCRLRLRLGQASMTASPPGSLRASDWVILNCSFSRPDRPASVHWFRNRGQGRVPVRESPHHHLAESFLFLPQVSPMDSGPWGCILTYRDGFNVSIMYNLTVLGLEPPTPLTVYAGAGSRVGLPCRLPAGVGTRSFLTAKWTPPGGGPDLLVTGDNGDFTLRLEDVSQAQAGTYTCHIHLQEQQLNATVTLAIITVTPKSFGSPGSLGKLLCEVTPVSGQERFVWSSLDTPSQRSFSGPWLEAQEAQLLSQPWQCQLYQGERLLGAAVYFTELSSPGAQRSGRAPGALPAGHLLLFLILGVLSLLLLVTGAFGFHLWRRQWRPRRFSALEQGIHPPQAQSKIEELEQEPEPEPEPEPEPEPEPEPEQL", "assay": "FACS, HEK293-hLAG-3, antibody 0.064 nM", "source_text": "The pIRES plasmid with the monkey-derived full-length gene was transfected into the HEK293 cell line to construct a HEK293 stable cell line containing monkey LAG-3 (herein referred to as HEK293-cLAG-3 stable cell line). The HEK293-hLAG-3 stable cell line and HEK293-cLAG-3 stable cell line were expanded in a T-75 cell culture flask to a 90% confluence. The medium was aspirated, and the cells were washed with HBSS (Hanks' Balanced Salt Solution) 1-2 times, then treated with a enzyme-free cell dissociation fluid (Versene solution: Life technology) and the cells were collected. The cells were washed with HBSS buffer for 1-2 times. After counted, the cells were diluted with HBSS to 1-2×10⁶ cells per ml, added with 1% goat serum blocking solution, incubated on ice for 20-30 minutes, and then washed with HBSS for 2 times by centrifugation. The collected cells were suspended in the FACS buffer (HBSS+1% BSA) to 2×10⁶ cells/ml, added as 100 microliters per well to a 96-well FACS reaction plate, added with 100 microliters per well of the antibody sample to be tested, incubated on ice for 1-2 hours. The plate was washed twice with the FACS buffer by centrifugation, added with 100 microliters of fluorescent (Alexa 488)-labeled secondary antibodies per well, and incubated on ice for 0.5-1.0 hours. The plate was washed 2-3 times with FACS buffer by centrifugation, added with 100 μl fixative solution (4% Paraformaldehyde) per well to suspend the cells. 5-10 minutes later, it was washed 1-2 times with FACS buffer by centrifugation. The cells were suspended with 100 microliters of FACS buffer, FACS (FACSCalibur, BD) was used for detection and the results were analyzed."}, "[2]": {"molecular_target": "T2, LAG-3-hFc protein (human LAG-3 extracellular region with hFc tag) (human, UniProt P18627 23-450)", "T2 construct": "also called hLAG-3-hFc; LAG-3 protein; not shown: human IgG Fc fragment (hFc) of the pCpC vector", "T2 sequence": "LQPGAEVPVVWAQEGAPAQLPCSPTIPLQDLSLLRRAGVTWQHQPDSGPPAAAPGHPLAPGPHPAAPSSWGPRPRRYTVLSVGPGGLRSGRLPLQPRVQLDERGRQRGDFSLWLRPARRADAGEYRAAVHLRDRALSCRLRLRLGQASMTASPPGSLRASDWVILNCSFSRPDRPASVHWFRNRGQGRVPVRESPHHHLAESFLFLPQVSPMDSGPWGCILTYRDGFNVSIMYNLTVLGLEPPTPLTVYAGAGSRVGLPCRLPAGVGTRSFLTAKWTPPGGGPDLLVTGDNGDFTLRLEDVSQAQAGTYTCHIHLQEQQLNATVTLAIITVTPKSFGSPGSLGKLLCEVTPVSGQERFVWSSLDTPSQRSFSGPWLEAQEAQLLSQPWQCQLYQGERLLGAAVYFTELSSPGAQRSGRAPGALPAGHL", "assay": "FACS, inhibition of LAG-3-hFc binding to MHC II on Raji cells, antibody 7.407 nM", "experimental": "The FACS reaction plate incubating the Raji cells was centrifuged to discard the supernatant. The above mixture was added as 100 μl per well to Raji cells and incubated on ice for 1-2 hours. The plate was washed twice with blocking solution (PBS, 2% fetal bovine serum) by centrifugation, added with 100 microliters of fluorescent (Alexa 488)-labeled secondary antibodies per well, and incubated on ice for 1.0 hours. The plate was washed 2-3 times by centrifugation with blocking solution (PBS, 2% fetal bovine serum), added with 100 microliters of PBS per well to suspend cells, and detected using FACS (FACS Calibur, BD) and the results were analyzed. Wherein, the IgG control was murine IgG, and the data in the table is the inhibition rate (%)."}, "[3]": {"molecular_target": "T1, human LAG-3 on cells (HEK293-hLAG-3 …)", "assay": "cell-based or functional assay"}},
  "data": [
    {"binder": "409D4E10 mouse-human chimeric antibody (antibody, V domains shown, also called mAb112-409D4E10) VH: QVQLQQSGAELVRPGASVTLSCKASGNTFTDYEMHWVKQTPVHGLEWIGATDPETDNTAYNQKFKGKAILTTDKSSSTAYMELRSLTSEDSAVYYCITSGWNDWGQGTSLTVSS VL: DIKMTQSPSSMYASLGERVTITCKASQDINSYLSWFQQKPGKSPKTLIYRANRLLDGVPSRFSGSGSGQDYSLTISSLEYEDMGIYYCLQYNEFPYTFGGGTKLEIK", "values": [
      {"measurement": "Mean fluorescence intensity", "setting": "[1]", "result": 6.3},
      {"measurement": "Inhibition rate (%)", "setting": "[2]", "result": 94.7, "unit": "%"},
      {"measurement": "IL-2 production, antigen-specific T lymphocyte stimulation test, 0.016 ug/ml, N = 1", "setting": "[3]", "result": 384, "unit": "pg/mL"},
      {"measurement": "IL-2 production, antigen-specific T lymphocyte stimulation test, 0.016 ug/ml, N = 2", "setting": "[3]", "result": 334, "unit": "pg/mL"},
      {"measurement": "IL-2 production, antigen-specific T lymphocyte stimulation test, 0.08 ug/ml, N = 1", "setting": "[3]", "result": 498, "unit": "pg/mL"},
      {"measurement": "IL-2 production, antigen-specific T lymphocyte stimulation test, 0.08 ug/ml, N = 2", "setting": "[3]", "result": 534, "unit": "pg/mL"},
      {"measurement": "IL-2 production, antigen-specific T lymphocyte stimulation test, 0.4 ug/ml, N = 1", "setting": "[3]", "result": 804, "unit": "pg/mL"},
      {"measurement": "IL-2 production, antigen-specific T lymphocyte stimulation test, 0.4 ug/ml, N = 2", "setting": "[3]", "result": 678, "unit": "pg/mL"},
      {"measurement": "IL-2 production, antigen-specific T lymphocyte stimulation test, 2 ug/ml, N = 1", "setting": "[3]", "result": 825, "unit": "pg/mL"},
      {"measurement": "IL-2 production, antigen-specific T lymphocyte stimulation test, 2 ug/ml, N = 2", "setting": "[3]", "result": 673, "unit": "pg/mL"},
      {"measurement": "IL-2 production, antigen-specific T lymphocyte stimulation test, 10 ug/ml, N = 1", "setting": "[3]", "result": 890, "unit": "pg/mL"},
      {"measurement": "IL-2 production, antigen-specific T lymphocyte stimulation test, 10 ug/ml, N = 2", "setting": "[3]", "result": 801, "unit": "pg/mL"}
    ]}
  ]
}
